The values below come from US20140087995A1 (published 2014).

This assay addresses T1, human amylin receptor (human, UniProt P30988 25-474; O60896 24-148, limits assumed).
T1 construct: whole, on cells; Calcitonin receptor plus RAMP-3 gives the amylin 3(a) receptor; membranes of Amylin 3(a)/CRE-luc cells were used; also called hAmylin-R; hAmylinR
T1 sequence (looked up) 1: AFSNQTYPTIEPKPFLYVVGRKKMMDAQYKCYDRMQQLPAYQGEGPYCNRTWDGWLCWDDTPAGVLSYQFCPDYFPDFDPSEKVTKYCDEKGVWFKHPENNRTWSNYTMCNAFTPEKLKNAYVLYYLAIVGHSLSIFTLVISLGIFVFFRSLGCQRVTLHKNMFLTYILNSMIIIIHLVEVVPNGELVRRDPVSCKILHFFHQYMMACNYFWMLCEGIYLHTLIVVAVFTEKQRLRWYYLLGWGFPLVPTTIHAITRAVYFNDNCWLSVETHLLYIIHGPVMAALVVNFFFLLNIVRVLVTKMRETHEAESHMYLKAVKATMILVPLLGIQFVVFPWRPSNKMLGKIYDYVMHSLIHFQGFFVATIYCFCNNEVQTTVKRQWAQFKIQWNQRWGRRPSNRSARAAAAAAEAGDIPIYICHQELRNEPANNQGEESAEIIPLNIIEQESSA
T1 sequence (looked up) 2: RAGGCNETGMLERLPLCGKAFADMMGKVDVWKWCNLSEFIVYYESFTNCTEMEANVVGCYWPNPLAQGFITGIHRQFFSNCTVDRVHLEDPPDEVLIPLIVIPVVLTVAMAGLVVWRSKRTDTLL
The experiment in a line: SPA competition binding, displacement of 125I-rat amylin from membranes with human amylin 3(a) receptor (Assay V). The protocol:
The binding assay was performed using scintillation proximity assay (SPA) beads (RPNQ0001) from PerkinElmer and cell membranes from the Amylin 3(a)/CRE-luc cells (as described in Assay (II)) were used. Membranes were prepared in the following way; the cells were rinsed with PBS and incubated with Versene for approximately 5 min before harvesting. The cells were flushed with PBS and the cell-suspension was centrifuged for 5 min at 1000 rpm. Cells were homogenized (ultrathurrax) in a buffer containing 20 mM Na-HEPES and 10 mM EDTA (pH 7.4) and centrifuged at 20.000 rpm for 15 min. The resulting pellet was resuspended, homogenized and centrifuged (20.000 rpm, 15 min) in a buffer containing 20 mM Na-HEPES and 0.1 mM EDTA (pH 7.4, buffer 2). The resulting pellet was resuspended in buffer 2 and protein concentration was measured (BCA protein Assay, Pierce). The homogenate was kept cold during the whole procedure. The membranes were kept at −80° C. until use. The assay was performed in a 384 well Optiplate (PerkinElmer) in a total volume of 40 ul. Membranes were mixed with SPA beads. Final concentration of membranes 35 ng/μL final and SPA beads was 0.05 mg/well. Test-compounds were dissolved in DMSO and further diluted in assay buffer (50 mM Hepes, pH 7.4, 1 mM CaCl2, 5 mM MgCl₂, 0.1% OA and 0.02% Tween20). […] The final mixture was incubated with shaking at 400 rpm for 120 min at 25° C. prior to centrifugation (1500 rpm, 10 min). Samples were analyzed on TopCounter™ (Packard). The IC₅₀ was calculated using (one site binding competition analysis) GraphPad Prism5 as a measure of receptor affinity.

Where a chain is given by its changes, count along the chain named. Numbered stars: 1 amine (or outer) side, 2 acyl side, 3 side chain; on linkers, the order of the positions; unused ones are H or OH. Bridge positions count the residues as written; N and C are the ends. * marks the point of attachment. C20 diacid = O=C(O)CCCCCCCCCCCCCCCCCCC(=O)*; γGlu = O=C(O)[C@H](CCC(=O)[*:2])N[*:1]; AEEA = NCCOCCOCC(=O)O

B1: N^α1 N^α1-[(4S)-4-carboxy-4-[[(4S)-4-carboxy-4-(19-carboxynonadecanoylamino)butanoyl]amino]butanoyl]-[Glu14,Arg17,Pro21,Pro27]-h-amylin (peptide)
peptide: {C20 diacid-γGlu-γGlu}-KCNTATCATQRLAEFLRHSSPNFGAIPSSTNVGSNTY-NH2
modifications: disulfide 2-7
SMILES: CC[C@H](C)[C@H](NC(=O)[C@H](C)NC(=O)CNC(=O)[C@H](Cc1ccccc1)NC(=O)[C@H](CC(N)=O)NC(=O)[C@@H]1CCCN1C(=O)[C@H](CO)NC(=O)[C@H](CO)NC(=O)[C@H](Cc1c[nH]cn1)NC(=O)[C@H](CCCNC(=N)N)NC(=O)[C@H](CC(C)C)NC(=O)[C@H](Cc1ccccc1)NC(=O)[C@H](CCC(=O)O)NC(=O)[C@H](C)NC(=O)[C@H](CC(C)C)NC(=O)[C@H](CCCNC(=N)N)NC(=O)[C@H](CCC(N)=O)NC(=O)[C@@H](NC(=O)[C@H](C)NC(=O)[C@@H]1CSSC[C@H](NC(=O)[C@H](CCCCN)NC(=O)CC[C@H](NC(=O)CC[C@H](NC(=O)CCCCCCCCCCCCCCCCCCC(=O)O)C(=O)O)C(=O)O)C(=O)N[C@@H](CC(N)=O)C(=O)N[C@@H]([C@@H](C)O)C(=O)N[C@@H](C)C(=O)N[C@@H]([C@@H](C)O)C(=O)N1)[C@@H](C)O)C(=O)N1CCC[C@H]1C(=O)N[C@@H](CO)C(=O)N[C@@H](CO)C(=O)N[C@H](C(=O)N[C@@H](CC(N)=O)C(=O)N[C@H](C(=O)NCC(=O)N[C@@H](CO)C(=O)N[C@@H](CC(N)=O)C(=O)N[C@H](C(=O)N[C@@H](Cc1ccc(O)cc1)C(N)=O)[C@@H](C)O)C(C)C)[C@@H](C)O
notes: also called 14E, 17R, 21P, 27P
For orientation: IC50 means the concentration at which inhibition is half-maximal. Lower therefore signals greater potency. B1 came in with an IC50 of 0.597 nM.

B2: N^α1-[(4S)-4-carboxy-4-(19-carboxynonadecanoylamino)butanoyl]-[Asp14,Arg17,Pro21,Pro27,Pro37]-h-amylin (peptide)
peptide: {C20 diacid-γGlu}-KCNTATCATQRLADFLRHSSPNFGAIPSSTNVGSNTP-NH2
modifications: disulfide 2-7
SMILES: CC[C@H](C)[C@H](NC(=O)[C@H](C)NC(=O)CNC(=O)[C@H](Cc1ccccc1)NC(=O)[C@H](CC(N)=O)NC(=O)[C@@H]1CCCN1C(=O)[C@H](CO)NC(=O)[C@H](CO)NC(=O)[C@H](Cc1c[nH]cn1)NC(=O)[C@H](CCCNC(=N)N)NC(=O)[C@H](CC(C)C)NC(=O)[C@H](Cc1ccccc1)NC(=O)[C@H](CC(=O)O)NC(=O)[C@H](C)NC(=O)[C@H](CC(C)C)NC(=O)[C@H](CCCNC(=N)N)NC(=O)[C@H](CCC(N)=O)NC(=O)[C@@H](NC(=O)[C@H](C)NC(=O)[C@@H]1CSSC[C@H](NC(=O)[C@H](CCCCN)NC(=O)CC[C@H](NC(=O)CCCCCCCCCCCCCCCCCCC(=O)O)C(=O)O)C(=O)N[C@@H](CC(N)=O)C(=O)N[C@@H]([C@@H](C)O)C(=O)N[C@@H](C)C(=O)N[C@@H]([C@@H](C)O)C(=O)N1)[C@@H](C)O)C(=O)N1CCC[C@H]1C(=O)N[C@@H](CO)C(=O)N[C@@H](CO)C(=O)N[C@H](C(=O)N[C@@H](CC(N)=O)C(=O)N[C@H](C(=O)NCC(=O)N[C@@H](CO)C(=O)N[C@@H](CC(N)=O)C(=O)N[C@H](C(=O)N1CCC[C@H]1C(N)=O)[C@@H](C)O)C(C)C)[C@@H](C)O
notes: also called 14D, 17R, 21P, 27P, 37P
Molecule B2 yielded a 50% inhibitory concentration (IC50) of 0.082 nM.

B3: N^α1-[(4S)-4-carboxy-4-(19-carboxynonadecanoylamino)butanoyl]-[Arg17,Pro21,Pro27,Pro31,Glu35]-h-amylin (peptide)
peptide: {C20 diacid-γGlu}-KCNTATCATQRLANFLRHSSPNFGAIPSSTPVGSETY-NH2
modifications: disulfide 2-7
SMILES: CC[C@H](C)[C@H](NC(=O)[C@H](C)NC(=O)CNC(=O)[C@H](Cc1ccccc1)NC(=O)[C@H](CC(N)=O)NC(=O)[C@@H]1CCCN1C(=O)[C@H](CO)NC(=O)[C@H](CO)NC(=O)[C@H](Cc1c[nH]cn1)NC(=O)[C@H](CCCNC(=N)N)NC(=O)[C@H](CC(C)C)NC(=O)[C@H](Cc1ccccc1)NC(=O)[C@H](CC(N)=O)NC(=O)[C@H](C)NC(=O)[C@H](CC(C)C)NC(=O)[C@H](CCCNC(=N)N)NC(=O)[C@H](CCC(N)=O)NC(=O)[C@@H](NC(=O)[C@H](C)NC(=O)[C@@H]1CSSC[C@H](NC(=O)[C@H](CCCCN)NC(=O)CC[C@H](NC(=O)CCCCCCCCCCCCCCCCCCC(=O)O)C(=O)O)C(=O)N[C@@H](CC(N)=O)C(=O)N[C@@H]([C@@H](C)O)C(=O)N[C@@H](C)C(=O)N[C@@H]([C@@H](C)O)C(=O)N1)[C@@H](C)O)C(=O)N1CCC[C@H]1C(=O)N[C@@H](CO)C(=O)N[C@@H](CO)C(=O)N[C@H](C(=O)N1CCC[C@H]1C(=O)N[C@H](C(=O)NCC(=O)N[C@@H](CO)C(=O)N[C@@H](CCC(=O)O)C(=O)N[C@H](C(=O)N[C@@H](Cc1ccc(O)cc1)C(N)=O)[C@@H](C)O)C(C)C)[C@@H](C)O
notes: also called 17R, 21P, 27P, 31P, 35E
Turning to B3, the IC50 turned out to be 0.61 nM.

B4: N^α1-[(4S)-4-carboxy-4-(19-carboxynonadecanoylamino)butanoyl]-[Arg17,Pro21,Pro27,Pro34,Glu35]-h-amylin (peptide)
peptide: {C20 diacid-γGlu}-KCNTATCATQRLANFLRHSSPNFGAIPSSTNVGPETY-NH2
modifications: disulfide 2-7
SMILES: CC[C@H](C)[C@H](NC(=O)[C@H](C)NC(=O)CNC(=O)[C@H](Cc1ccccc1)NC(=O)[C@H](CC(N)=O)NC(=O)[C@@H]1CCCN1C(=O)[C@H](CO)NC(=O)[C@H](CO)NC(=O)[C@H](Cc1c[nH]cn1)NC(=O)[C@H](CCCNC(=N)N)NC(=O)[C@H](CC(C)C)NC(=O)[C@H](Cc1ccccc1)NC(=O)[C@H](CC(N)=O)NC(=O)[C@H](C)NC(=O)[C@H](CC(C)C)NC(=O)[C@H](CCCNC(=N)N)NC(=O)[C@H](CCC(N)=O)NC(=O)[C@@H](NC(=O)[C@H](C)NC(=O)[C@@H]1CSSC[C@H](NC(=O)[C@H](CCCCN)NC(=O)CC[C@H](NC(=O)CCCCCCCCCCCCCCCCCCC(=O)O)C(=O)O)C(=O)N[C@@H](CC(N)=O)C(=O)N[C@@H]([C@@H](C)O)C(=O)N[C@@H](C)C(=O)N[C@@H]([C@@H](C)O)C(=O)N1)[C@@H](C)O)C(=O)N1CCC[C@H]1C(=O)N[C@@H](CO)C(=O)N[C@@H](CO)C(=O)N[C@H](C(=O)N[C@@H](CC(N)=O)C(=O)N[C@H](C(=O)NCC(=O)N1CCC[C@H]1C(=O)N[C@@H](CCC(=O)O)C(=O)N[C@H](C(=O)N[C@@H](Cc1ccc(O)cc1)C(N)=O)[C@@H](C)O)C(C)C)[C@@H](C)O
notes: also called 17R, 21P, 27P, 34P, 35E
B4 yielded a half-inhibitory concentration (IC50) of 0.577 nM.

B5: N^α1-[2-[2-[2-[[2-[2-[2-[[(4S)-4-carboxy-4-(19-carboxynonadecanoylamino)butanoyl]amino]ethoxy]ethoxy]acetyl]amino]ethoxy]ethoxy]acetyl]-[Glu14,Arg17,Pro21,Pro27 … (peptide)
peptide: KCNTATCATQRLAEFLRHSSPNFGAIPSSTNVGSNTY
modifications: C20 diacid-gGlu-2xOEG on the alpha amino group of the N-terminal residue; disulfide Cys2-Cys7 and C-terminal amide as in human amylin
notes: as for B1
Molecule B5 had a 50% inhibitory concentration (IC50) of 0.556 nM.

B6: N^α1-[(4S)-4-carboxy-4-(19-carboxynonadecanoylamino)butanoyl]-[Arg17,Pro21,Pro27,Arg34]-h-amylin (peptide)
peptide: B5 peptide with E14N, S34R
modifications: C20 diacid-gGlu on the alpha amino group of the N-terminal residue; disulfide Cys2-Cys7 and C-terminal amide as in human amylin
notes: also called 17R, 21P, 27P, 34R
Take B6: the IC50 turned out to be 0.665 nM.

B7: N^α1-[(4S)-4-carboxy-4-(19-carboxynonadecanoylamino)butanoyl]-[Arg17,Pro21,Pro27,His34]-h-amylin (peptide)
peptide: B5 peptide with E14N, S34H
modifications: C20 diacid-gGlu on the alpha amino group of the N-terminal residue; disulfide Cys2-Cys7 and C-terminal amide as in human amylin
notes: also called 17R, 21P, 27P, 34H
For B7, the IC50 was determined as 0.549 nM.

B8: N^α1-[2-[2-[2-[[2-[2-[2-[[(4S)-4-carboxy-4-(19-carboxynonadecanoylamino)butanoyl]amino]ethoxy]ethoxy]acetyl]amino]ethoxy]ethoxy]acetyl]-[Glu14,Arg17,Pro21,Pro27 … (peptide)
peptide: {C20 diacid-γGlu-AEEA-AEEA}-KCNTATCATQRLAEFLRHSSPNFGAIPSSTNVGSNTP-NH2
modifications: disulfide 2-7
SMILES: CC[C@H](C)[C@H](NC(=O)[C@H](C)NC(=O)CNC(=O)[C@H](Cc1ccccc1)NC(=O)[C@H](CC(N)=O)NC(=O)[C@@H]1CCCN1C(=O)[C@H](CO)NC(=O)[C@H](CO)NC(=O)[C@H](Cc1c[nH]cn1)NC(=O)[C@H](CCCNC(=N)N)NC(=O)[C@H](CC(C)C)NC(=O)[C@H](Cc1ccccc1)NC(=O)[C@H](CCC(=O)O)NC(=O)[C@H](C)NC(=O)[C@H](CC(C)C)NC(=O)[C@H](CCCNC(=N)N)NC(=O)[C@H](CCC(N)=O)NC(=O)[C@@H](NC(=O)[C@H](C)NC(=O)[C@@H]1CSSC[C@H](NC(=O)[C@H](CCCCN)NC(=O)COCCOCCNC(=O)COCCOCCNC(=O)CC[C@H](NC(=O)CCCCCCCCCCCCCCCCCCC(=O)O)C(=O)O)C(=O)N[C@@H](CC(N)=O)C(=O)N[C@@H]([C@@H](C)O)C(=O)N[C@@H](C)C(=O)N[C@@H]([C@@H](C)O)C(=O)N1)[C@@H](C)O)C(=O)N1CCC[C@H]1C(=O)N[C@@H](CO)C(=O)N[C@@H](CO)C(=O)N[C@H](C(=O)N[C@@H](CC(N)=O)C(=O)N[C@H](C(=O)NCC(=O)N[C@@H](CO)C(=O)N[C@@H](CC(N)=O)C(=O)N[C@H](C(=O)N1CCC[C@H]1C(N)=O)[C@@H](C)O)C(C)C)[C@@H](C)O
notes: also called 14E, 17R, 21P, 27P, 37P
For the molecule B8, the IC50 came to 0.217 nM.
